Target: the molecule itself
Assay: SEC; HiLoad 16/600 Superdex 200 pg, 25 mM Tris, 300 mM NaCl pH 7.0, 277 K; preparative step after IMAC

B1: Triosephosphate isomerase from Fasciola hepatica (enzyme)
chain: MASNRKFFVGGNWKMNGSKESNQKLLKTLSDAKPDANTEILVAVPFVYLKDVREHLDKRFHVAAQNCYKVASGAFTGEISPAMIRDCGCEWVILGHSERRHIFGESDELIGEKVNHALTCGLKVVPCIGEKLDEREAGKTEQVCFRQLDAIKKGIPKAEDWSRVVIAYEPVWAIGTGKTASPEQAQEVHHAVRQWLEKNVSQAVASSLRITYGGSVTAANCKELAKKPDVDGFLVGGASLKPEFVDICNANRG
notes: triosephosphate isomerase (EC 5.3.1.1), Fasciola hepatica; gene in plasmid pET-46 Ek/LIC; The plasmid was provided by D. Timson (construct of Zinsser et al., 2013); also called FhTPI; F. hepatica TPI; source: E. coli Rosetta (DE3), purified (IMAC, SEC)
B1 was tested, and the “stoichiometry N” value was 2.
